Measured values taken from US5972698.
Read-outs that look alike come from different tables or passages of the source.

Legend:
[1] = molecular target: bovine chymotrypsin (bovine) (UniProt P00766); experiment: enzyme inhibition, steady state velocities on Suc-Val-Pro-Phe-pNA, tight binding fit
[2] = molecular target: bovine trypsin (bovine) (UniProt P00760); experiment: enzyme inhibition, steady state velocities on Tos-Gly-Pro-Arg-pNA, tight binding fit
[3] = molecular target: human tryptase (purified from human lung tissue) (human) (UniProt Q15661); experiment: as above
[4] = molecular target: human tryptase (purified from human lung tissue) (human) (UniProt Q15661)
[5] = molecular target: human cathepsin G (human) (UniProt P08311)
[6] = molecular target: human plasmin (human) (UniProt P00747)
[7] = molecular target: human thrombin (human) (UniProt P00734)
[8] = molecular target: porcine pancreatic kallikrein (porcine) (UniProt P00752)
[9] = molecular target: human cathepsin G (human) (UniProt P08311); experiment: enzyme inhibition at 0.2 µM inhibitor, Table 5
[10] = molecular target: human neutrophil elastase (human) (UniProt P08246); experiment: enzyme inhibition at 0.2 µM inhibitor, Table 5
[11] = molecular target: human plasma kallikrein (human) (UniProt P03952); experiment: enzyme inhibition at 0.2 µM inhibitor, Table 5
[12] = molecular target: porcine pancreatic elastase (porcine) (UniProt P00772); experiment: enzyme inhibition at 0.2 µM inhibitor, Table 5
[13] = molecular target: human factor Xa (human) (UniProt P00742); experiment: enzyme inhibition at 0.2 µM inhibitor, Table 5
[14] = molecular target: human plasmin (human) (UniProt P00747); experiment: enzyme inhibition at 0.2 µM inhibitor, Table 5
[15] = molecular target: human thrombin (human) (UniProt P00734); experiment: enzyme inhibition at 0.2 µM inhibitor, Table 5
[16] = molecular target: human urokinase (human) (UniProt P00749); experiment: enzyme inhibition at 0.2 µM inhibitor, Table 5
[17] = molecular target: porcine pancreatic kallikrein (porcine) (UniProt P00752); experiment: enzyme inhibition at 0.2 µM inhibitor, Table 5
[18] = molecular target: human tryptase (purified from human lung tissue) (human) (UniProt Q15661); remark: listed apart in the source
[19] = molecular target: human tryptase (purified from human lung tissue) (human) (UniProt Q15661); experiment: enzyme inhibition, steady state velocities on Tos-Gly-Pro-Arg-pNA, tight binding fit; Ki for the inhibition of two of the four subunits of the tryptase-tetramer
[20] = molecular target: human tryptase (purified from human lung tissue) (human) (UniProt Q15661); remark: listed apart in the source
[21] = molecular target: human tryptase (purified from human lung tissue) (human) (UniProt Q15661); remark: listed apart in the source
[22] = molecular target: bovine trypsin (bovine) (UniProt P00760)
Target sequence in this assay (P00760 24-246): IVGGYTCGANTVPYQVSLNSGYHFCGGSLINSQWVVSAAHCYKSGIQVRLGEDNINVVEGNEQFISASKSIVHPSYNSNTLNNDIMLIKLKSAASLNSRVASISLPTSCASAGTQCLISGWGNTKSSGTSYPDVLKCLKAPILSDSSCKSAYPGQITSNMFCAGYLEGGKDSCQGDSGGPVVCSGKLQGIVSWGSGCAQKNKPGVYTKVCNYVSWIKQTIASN

[23] = molecular target: human tryptase (purified from human lung tissue) (human) (UniProt Q15661); experiment: enzyme inhibition, tos-Gly-Pro-Arg-pNa as substrate

Chain of recombinant leech-derived tryptase inhibitor form C, secreted by Saccharomyces cerevisiae (strain S-78 with pRM 9.1.4) (chain): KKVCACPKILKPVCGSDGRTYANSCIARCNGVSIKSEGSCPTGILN

Question: Which Ki [1] does the source give for “leech-derived tryptase inhibitor (isolated from extract of the medical leech Hirudo medicinalis)” here?
Answer: 20 nM

Question: And the Ki [nM], first of the two columns so headed [1]?
Answer: 137 nM

Question: What about the Ki [2] of the same substance?
Answer: 0.9 nM

Question: And the Ki [nM], first of the two columns so headed [2]?
Answer: 4.7 nM

Question: What about the Ki [nM], first of the two columns so headed [3] of the same substance?
Answer: 1.8 nM

Question: What about the amidolytic activity of tryptase on tos-Gly-Pro-Arg-pNa [4] of the same substance?
Answer: 50%

Question: And the amidolytic activity of cathepsin G on Suc-Val-Pro-Phe-pNA, inhibitor at 0.2 µM [5]?
Answer: 11%

Question: What about the amidolytic activity of plasmin on Tos-Gly-Pro-Lys-pNA, inhibitor at 0.2 µM [6] of the same substance?
Answer: 30%

Question: What about the amidolytic activity of thrombin on Tos-Gly-Pro-Arg-pNA, inhibitor at 0.2 µM [7] of the same substance?
Answer: 12%

Question: What about the amidolytic activity of tissue kallikrein on D-Val-Leu-Arg-pNA, inhibitor at 0.2 µM [8] of the same substance?
Answer: 14%

Question: What about the Ki relative to the complex with tryptase (times higher) [9] of the same substance?
Answer: > 200 times

Question: And the Ki relative to the complex with tryptase (times higher) [10]?
Answer: > 200 times

Question: What about the Ki relative to the complex with tryptase (times higher) [11] of the same substance?
Answer: > 200 times

Question: What about the Ki relative to the complex with tryptase (times higher) [12] of the same substance?
Answer: > 200 times

Question: What about the Ki relative to the complex with tryptase (times higher) [13] of the same substance?
Answer: > 200 times

Question: What about the Ki relative to the complex with tryptase (times higher) [14] of the same substance?
Answer: > 200 times

Question: And the Ki relative to the complex with tryptase (times higher) [15]?
Answer: > 200 times

Question: And the Ki relative to the complex with tryptase (times higher) [16]?
Answer: > 200 times

Question: And the Ki relative to the complex with tryptase (times higher) [17]?
Answer: > 200 times

Question: And the tryptase-induced growth of HaCaT keratinocytes (3H-thymidine incorporation) [18]?
Answer: 99%

Question: What about the Ki [19] of the same substance?
Answer: 1.4 nM

Question: What about the tryptase-induced breakdown of vasoactive intestinal peptide (VIP), reversed phase HPLC [20] of the same substance?
Answer: 66%

Question: For “recombinant leech-derived tryptase inhibitor form C, secreted by Saccharomyces cerevisiae (strain S-78 with pRM 9.1.4)”, which amidolytic activity of tryptase on tos-Gly-Pro-Arg-pNa [21] is on record?
Answer: 50%

Question: And the trypsin inhibition assay (residual trypsin activity on Tos-Gly-Pro-Arg-p-NA) [22]?
Answer: 60%

Question: What about the Ki [23] of the same substance?
Answer: 1.9 nM
